We go through 21 molecules from patent publication US5773001 (American Cyanamid Company, dated 1998).

Like-named read-outs stand apart in the source and are kept apart here.

Assay [1] addresses T1, glycoprotein antigen present on colon cancer cells, recognized by A33 (Homo sapiens (Human)) (UniProt Q99795).
T1 sequence: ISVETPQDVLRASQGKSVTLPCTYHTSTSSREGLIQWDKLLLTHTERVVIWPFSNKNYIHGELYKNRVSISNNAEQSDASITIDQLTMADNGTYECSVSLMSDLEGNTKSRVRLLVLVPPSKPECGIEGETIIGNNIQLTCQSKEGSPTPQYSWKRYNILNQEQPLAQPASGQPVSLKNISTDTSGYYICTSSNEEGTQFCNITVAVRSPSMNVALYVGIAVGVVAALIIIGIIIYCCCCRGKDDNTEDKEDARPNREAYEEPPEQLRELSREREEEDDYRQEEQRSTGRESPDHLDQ

Assay [2] deals with T1, glycoprotein antigen present on colon cancer cells, recognized by A33 (Homo sapiens (Human)). Put plainly: competition with 125I-labelled native antibody on COLO 205 cells; IC50 (reference) / IC50 (sample).
Assay [3] deals with CD33 antigen (human) (UniProt P20138).
For assay [4] the target is unchanged. Put plainly: competition with 125I-labelled native antibody on HEL 92.1.7 cells; IC50 (reference) / IC50 (sample).
The target is the same in assay [5]. The source holds these as a separate data set.
For assay [6] the target is unchanged. This is another data set of the same source.
The target is the same in assay [7]. The source holds these as a separate data set.
The target of assay [8] is T1, glycoprotein antigen present on colon cancer cells, recognized by A33 (Homo sapiens (Human)). The source holds these as a separate data set.
The target of assay [9] is CD33 antigen (human) (UniProt P20138). The source holds these as a separate data set.
The target is the same in assay [10]. This is another data set of the same source.
Assay [11] has the same target. This is another data set of the same source.
The target is the same in assay [12]. The source holds these as a separate data set.
Assay [13] shares this target. The source holds these as a separate data set.
For assay [14] the target is unchanged. The source holds these as a separate data set.
Assay [15] shares this target. This is another data set of the same source.
Assay [16] shares this target. This is another data set of the same source.
The target is the same in assay [17]. Put plainly: competition with 125I-labelled native antibody on HEL 92.1.7 cells; IC50 (reference) / IC50 (sample). This is another data set of the same source.
The target is the same in assay [18]. This is another data set of the same source.
For assay [19] the target is unchanged. This is another data set of the same source.
Assay [20] has the same target. The source holds these as a separate data set.
The target is the same in assay [21]. The source holds these as a separate data set.
Assay [22] shares this target. The source holds these as a separate data set.
Assay [23] has the same target. This is another data set of the same source.
For assay [24] the target is unchanged. This is another data set of the same source.

“Conjugate of 4-(4-acetylphenoxy)butanoic acid (7) condensed with calicheamicin N-acetyl gamma dimethyl hydrazide and h-A33 (antibody)”: the In vitro IC50 (3H-thymidine incorporation) in assay [1] was 4.03 ng/mL. Further, the Rel. Affinity in assay [2] stood at 1.13.
Regarding “Conjugate of 4-(4-formyl-2-methoxyphenoxy)butanoic acid (11) condensed with Calicheamicin N-acetyl gamma dimethyl hydrazide and m-P67.6 (antibody)”, in the assay with CD33 antigen (human) [3], the In vitro IC50 (3H-thymidine incorporation) came to 0.13 ng/mL. Besides, the Rel. Affinity in the assay with CD33 antigen (human) [4] is 0.22.
In the case of “Conjugate of 4-(4-acetyl-2-methoxyphenoxy)butanoic acid (15) condensed with Calicheamicin N-acetyl gamma dimethyl hydrazide and m-P67.6 (antibody)”, the In vitro IC50 (3H-thymidine incorporation) in the assay with CD33 antigen (human) [5] amounted to 0.029 ng/mL. Also, in the assay with CD33 antigen (human) [4], the Rel. Affinity was found to be 0.8.
Regarding “Conjugate of 4-(4-formylphenoxy)butanoic acid (9) condensed with Calicheamicin N-acetyl gamma dimethyl hydrazide and m-P67.6 (antibody)”, in the assay with CD33 antigen (human) [6], the In vitro IC50 (3H-thymidine incorporation) came out at 0.087 ng/mL. Further, the Rel. Affinity in the assay with CD33 antigen (human) [4] is 0.7.
“Conjugate of 4-(3-formylphenoxy)butanoic acid (8) condensed with Calicheamicin N-acetyl gamma dimethyl hydrazide and m-P67.6 (antibody)”: the In vitro IC50 (3H-thymidine incorporation) with CD33 antigen (human) [7] is 0.38 ng/mL. In the assay with CD33 antigen (human) [4], this molecule came in with a Rel. Affinity of 1.
As to “Conjugate of 4-(4-acetylphenoxy)butanoic acid (7) condensed with calicheamicin gamma dimethyl hydrazide and h-A33 (antibody)”, the In vitro IC50 (3H-thymidine incorporation) in [8] came to 3.55 ng/mL. Also, in assay [2], the Rel. Affinity came out at 0.91.
For the molecule “Conjugate of 4-formylbenzenepropanoic acid (12) condensed with Calicheamicin N-acetyl gamma dimethyl hydrazide and m-P67.6 (antibody)”, the In vitro IC50 (3H-thymidine incorporation) with CD33 antigen (human) [9] stood at 0.12 ng/mL. Also, in the assay with CD33 antigen (human) [4], the Rel. Affinity stood at 0.73.
Take “Conjugate of 4-(4-acetyl-2,6-dimethoxyphenoxy)butanoic acid (14) condensed with Calicheamicin N-acetyl gamma dimethyl hydrazide and m-P67.6 (antibody)”: in the assay with CD33 antigen (human) [10], the In vitro IC50 (3H-thymidine incorporation) was determined as 0.015 ng/mL. Besides, in the assay with CD33 antigen (human) [4], the Rel. Affinity stood at 1.18.
“Conjugate of 4-4-(3-oxopropyl)phenoxy!butanoic acid (18) condensed with Calicheamicin N-acetyl gamma dimethyl hydrazide and m-P67.6 (antibody)” yielded an In vitro IC50 (3H-thymidine incorporation) in the assay with CD33 antigen (human) [11] of 0.62 ng/mL. The molecule also displayed a Rel. Affinity with CD33 antigen (human) [4] of 1.21.
With “Conjugate of 4-(2-acetyl-5-methoxyphenoxy!butanoic acid (17) condensed with Calicheamicin N-acetyl gamma dimethyl hydrazide and m-P67.6 (antibody)”, the In vitro IC50 (3H-thymidine incorporation) with CD33 antigen (human) [12] is 0.0098 ng/mL. The molecule further gave a Rel. Affinity with CD33 antigen (human) [4] of 1.2.
Turning to “Conjugate of 4-4-(3-oxobutyl)phenoxy!butanoic acid (16) condensed with Calicheamicin N-acetyl gamma dimethyl hydrazide and m-P67.6 (antibody)”, the In vitro IC50 (3H-thymidine incorporation) in the assay with CD33 antigen (human) [13] was 9 ng/mL.
“Conjugate of 4-(4-acetyl-2-methylphenoxy)butanoic acid (10) condensed with Calicheamicin N-acetyl gamma dimethyl hydrazide and m-P67.6 (antibody)” showed an In vitro IC50 (3H-thymidine incorporation) with CD33 antigen (human) [14] of 0.041 ng/mL. Moreover, the Rel. Affinity in the assay with CD33 antigen (human) [4] came out at 1.07.
As for “Conjugate of 4-(2,3-Dimethoxy-5-formylphenoxy)butanoic acid (13) condensed with Calicheamicin N-acetyl gamma dimethyl hydrazide and m-P67.6 (antibody)”, in the assay with CD33 antigen (human) [15], the In vitro IC50 (3H-thymidine incorporation) was determined as 0.062 ng/mL. In addition, the Rel. Affinity with CD33 antigen (human) [4] amounted to 1.08.

B1: Conjugate of 4-(4-acetyl-2-methylphenoxy)butanoic acid (10) condensed with Calicheamicin N-acetyl gamma dimethyl hydrazide and h-P67.6 (antibody, V domains shown)
VH: EVQLVQSGAEVKKPGSSVKVSCKASGYTITDSNIHWVRQAPGQSLEWIGYIYPYNGGTDYNQKFKNRATLTVDNPTNTAYMELSSLRSEDTDFYYCVNGNPWLAYWGQGTLVTVSS
VL: DIQLTQSPSTLSASVGDRVTITCRASESLDNYGIRFLTWFQQKPGKAPKLLMYAASNQGSGVPSRFSGSGSGTEFTLTISSLQPDDFATYYCQQTKEVPWSFGQGTKVEVKR
modifications: drug-linker amide on lysine side chains, sites not stated; drug-linker amide on lysine side chains, sites not stated
B1: the In vitro IC50 (3H-thymidine incorporation) with CD33 antigen (human) [16] stood at 0.45 ng/mL. The molecule also registered a Rel. Affinity in the assay with CD33 antigen (human) [17] of 1.16.

B2: Conjugate of 4-(2-acetyl-5-methoxyphenoxy!butanoic acid (17) condensed with Calicheamicin N-acetyl gamma dimethyl hydrazide and h-P67.6 (antibody, V domains shown)
VH: EVQLVQSGAEVKKPGSSVKVSCKASGYTITDSNIHWVRQAPGQSLEWIGYIYPYNGGTDYNQKFKNRATLTVDNPTNTAYMELSSLRSEDTDFYYCVNGNPWLAYWGQGTLVTVSS
VL: DIQLTQSPSTLSASVGDRVTITCRASESLDNYGIRFLTWFQQKPGKAPKLLMYAASNQGSGVPSRFSGSGSGTEFTLTISSLQPDDFATYYCQQTKEVPWSFGQGTKVEVKR
modifications: drug-linker amide on lysine side chains, sites not stated; drug-linker amide on lysine side chains, sites not stated
As for B2, the In vitro IC50 (3H-thymidine incorporation) with CD33 antigen (human) [18] was found to be 0.088 ng/mL. The molecule further returned a Rel. Affinity with CD33 antigen (human) [17] of 0.98.

B3: Conjugate of 4-(4-formyl-2-methoxyphenoxy)butanoic acid (11) condensed with Calicheamicin N-acetyl gamma dimethyl hydrazide and h-P67.6 (antibody, V domains shown)
VH: EVQLVQSGAEVKKPGSSVKVSCKASGYTITDSNIHWVRQAPGQSLEWIGYIYPYNGGTDYNQKFKNRATLTVDNPTNTAYMELSSLRSEDTDFYYCVNGNPWLAYWGQGTLVTVSS
VL: DIQLTQSPSTLSASVGDRVTITCRASESLDNYGIRFLTWFQQKPGKAPKLLMYAASNQGSGVPSRFSGSGSGTEFTLTISSLQPDDFATYYCQQTKEVPWSFGQGTKVEVKR
modifications: drug-linker amide on lysine side chains, sites not stated; drug-linker amide on lysine side chains, sites not stated
On to B3, for which, in the assay with CD33 antigen (human) [19], the In vitro IC50 (3H-thymidine incorporation) came out at 3.8 ng/mL. The Rel. Affinity with CD33 antigen (human) [17] is 0.73.

B4: Conjugate of 4-formylbenzenepropanoic acid (12) condensed with Calicheamicin N-acetyl gamma dimethyl hydrazide and h-P67.6 (antibody, V domains shown)
VH: EVQLVQSGAEVKKPGSSVKVSCKASGYTITDSNIHWVRQAPGQSLEWIGYIYPYNGGTDYNQKFKNRATLTVDNPTNTAYMELSSLRSEDTDFYYCVNGNPWLAYWGQGTLVTVSS
VL: DIQLTQSPSTLSASVGDRVTITCRASESLDNYGIRFLTWFQQKPGKAPKLLMYAASNQGSGVPSRFSGSGSGTEFTLTISSLQPDDFATYYCQQTKEVPWSFGQGTKVEVKR
modifications: drug-linker amide on lysine side chains, sites not stated; drug-linker amide on lysine side chains, sites not stated
On to B4, for which the In vitro IC50 (3H-thymidine incorporation) in the assay with CD33 antigen (human) [20] turned out to be 1 ng/mL. In the assay with CD33 antigen (human) [17], this molecule had a Rel. Affinity of 0.73.

B5: Conjugate of 4-(4-acetyl-2-methoxyphenoxy)butanoic acid (15) condensed with Calicheamicin N-acetyl gamma dimethyl hydrazide and h-P67.6 (antibody, V domains shown)
VH: EVQLVQSGAEVKKPGSSVKVSCKASGYTITDSNIHWVRQAPGQSLEWIGYIYPYNGGTDYNQKFKNRATLTVDNPTNTAYMELSSLRSEDTDFYYCVNGNPWLAYWGQGTLVTVSS
VL: DIQLTQSPSTLSASVGDRVTITCRASESLDNYGIRFLTWFQQKPGKAPKLLMYAASNQGSGVPSRFSGSGSGTEFTLTISSLQPDDFATYYCQQTKEVPWSFGQGTKVEVKR
modifications: drug-linker amide on lysine side chains, sites not stated; drug-linker amide on lysine side chains, sites not stated
As for B5, the In vitro IC50 (3H-thymidine incorporation) with CD33 antigen (human) [21] was determined as 0.23 ng/mL. The same molecule yielded a Rel. Affinity in the assay with CD33 antigen (human) [17] of 0.78.

B6: Conjugate of 4-(4-acetyl-2,6-dimethoxyphenoxy)butanoic acid (14) condensed with Calicheamicin N-acetyl gamma dimethyl hydrazide and h-P67.6 (antibody, V domains shown)
VH: EVQLVQSGAEVKKPGSSVKVSCKASGYTITDSNIHWVRQAPGQSLEWIGYIYPYNGGTDYNQKFKNRATLTVDNPTNTAYMELSSLRSEDTDFYYCVNGNPWLAYWGQGTLVTVSS
VL: DIQLTQSPSTLSASVGDRVTITCRASESLDNYGIRFLTWFQQKPGKAPKLLMYAASNQGSGVPSRFSGSGSGTEFTLTISSLQPDDFATYYCQQTKEVPWSFGQGTKVEVKR
modifications: drug-linker amide on lysine side chains, sites not stated; drug-linker amide on lysine side chains, sites not stated
B6: the In vitro IC50 (3H-thymidine incorporation) with CD33 antigen (human) [22] was found to be 0.24 ng/mL. This molecule also registered a Rel. Affinity in the assay with CD33 antigen (human) [17] of 1.07.

B7: Conjugate of 4-4-(3-oxopropyl)phenoxy!butanoic acid (18) condensed with Calicheamicin N-acetyl gamma dimethyl hydrazide and h-P67.6 (antibody, V domains shown)
VH: EVQLVQSGAEVKKPGSSVKVSCKASGYTITDSNIHWVRQAPGQSLEWIGYIYPYNGGTDYNQKFKNRATLTVDNPTNTAYMELSSLRSEDTDFYYCVNGNPWLAYWGQGTLVTVSS
VL: DIQLTQSPSTLSASVGDRVTITCRASESLDNYGIRFLTWFQQKPGKAPKLLMYAASNQGSGVPSRFSGSGSGTEFTLTISSLQPDDFATYYCQQTKEVPWSFGQGTKVEVKR
modifications: drug-linker amide on lysine side chains, sites not stated; drug-linker amide on lysine side chains, sites not stated
B7 registered an In vitro IC50 (3H-thymidine incorporation) with CD33 antigen (human) [23] of 1.1 ng/mL. Also, the Rel. Affinity with CD33 antigen (human) [17] was 0.8.

B8: Conjugate of 4-(2,3-dimethoxy-5-formylphenoxy)butanoic acid (13) condensed with Calicheamicin N-acetyl gamma dimethyl hydrazide and h-P67.6 (antibody, V domains shown)
VH: EVQLVQSGAEVKKPGSSVKVSCKASGYTITDSNIHWVRQAPGQSLEWIGYIYPYNGGTDYNQKFKNRATLTVDNPTNTAYMELSSLRSEDTDFYYCVNGNPWLAYWGQGTLVTVSS
VL: DIQLTQSPSTLSASVGDRVTITCRASESLDNYGIRFLTWFQQKPGKAPKLLMYAASNQGSGVPSRFSGSGSGTEFTLTISSLQPDDFATYYCQQTKEVPWSFGQGTKVEVKR
modifications: drug-linker amide on lysine side chains, sites not stated; drug-linker amide on lysine side chains, sites not stated
Take B8: the In vitro IC50 (3H-thymidine incorporation) with CD33 antigen (human) [24] stood at 1.1 ng/mL. Further, in the assay with CD33 antigen (human) [17], the Rel. Affinity is 1.16.
